WO2001068708A2 (dated 2001)

T1: fibroblast activating protein alpha (FAPα), cell surface-bound (human, UniProt Q12884 1-760)
T1 construct: whole, on cells; Also used as the target of the FAP-specific immunohistological staining of tumour cryo-sections; also called FAP+ cells; FAP overexpressing fibrosarcoma cells (HT1080)
T1 sequence (looked up): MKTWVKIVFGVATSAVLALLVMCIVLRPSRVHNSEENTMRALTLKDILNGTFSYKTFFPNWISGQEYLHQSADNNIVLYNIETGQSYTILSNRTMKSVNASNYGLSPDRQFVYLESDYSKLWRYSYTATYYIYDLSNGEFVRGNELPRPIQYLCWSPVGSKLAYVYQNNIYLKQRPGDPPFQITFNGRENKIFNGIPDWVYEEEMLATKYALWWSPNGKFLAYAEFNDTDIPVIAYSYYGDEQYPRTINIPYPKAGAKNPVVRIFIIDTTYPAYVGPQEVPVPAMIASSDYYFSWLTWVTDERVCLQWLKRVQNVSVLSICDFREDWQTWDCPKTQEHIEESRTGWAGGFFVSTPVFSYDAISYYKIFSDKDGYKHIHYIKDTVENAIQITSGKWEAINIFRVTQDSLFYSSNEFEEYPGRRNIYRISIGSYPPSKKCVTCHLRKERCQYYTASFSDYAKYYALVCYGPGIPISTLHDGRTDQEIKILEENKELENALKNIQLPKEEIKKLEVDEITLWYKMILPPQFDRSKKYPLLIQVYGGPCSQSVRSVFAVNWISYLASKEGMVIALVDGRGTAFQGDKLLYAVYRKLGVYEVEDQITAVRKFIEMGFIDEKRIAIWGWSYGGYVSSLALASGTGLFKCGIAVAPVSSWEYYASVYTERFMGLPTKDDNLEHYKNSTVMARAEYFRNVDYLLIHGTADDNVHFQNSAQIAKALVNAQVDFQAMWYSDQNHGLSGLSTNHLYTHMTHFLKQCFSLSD

T2: fibroblast activating protein alpha (FAPα), purified / immobilised antigen (human, UniProt Q12884 27-760, limits assumed)
T2 construct: Antigen coated on ELISA wells and immunotubes; The construct is not described; also called human FAP; immobilized FAP
T2 sequence (looked up): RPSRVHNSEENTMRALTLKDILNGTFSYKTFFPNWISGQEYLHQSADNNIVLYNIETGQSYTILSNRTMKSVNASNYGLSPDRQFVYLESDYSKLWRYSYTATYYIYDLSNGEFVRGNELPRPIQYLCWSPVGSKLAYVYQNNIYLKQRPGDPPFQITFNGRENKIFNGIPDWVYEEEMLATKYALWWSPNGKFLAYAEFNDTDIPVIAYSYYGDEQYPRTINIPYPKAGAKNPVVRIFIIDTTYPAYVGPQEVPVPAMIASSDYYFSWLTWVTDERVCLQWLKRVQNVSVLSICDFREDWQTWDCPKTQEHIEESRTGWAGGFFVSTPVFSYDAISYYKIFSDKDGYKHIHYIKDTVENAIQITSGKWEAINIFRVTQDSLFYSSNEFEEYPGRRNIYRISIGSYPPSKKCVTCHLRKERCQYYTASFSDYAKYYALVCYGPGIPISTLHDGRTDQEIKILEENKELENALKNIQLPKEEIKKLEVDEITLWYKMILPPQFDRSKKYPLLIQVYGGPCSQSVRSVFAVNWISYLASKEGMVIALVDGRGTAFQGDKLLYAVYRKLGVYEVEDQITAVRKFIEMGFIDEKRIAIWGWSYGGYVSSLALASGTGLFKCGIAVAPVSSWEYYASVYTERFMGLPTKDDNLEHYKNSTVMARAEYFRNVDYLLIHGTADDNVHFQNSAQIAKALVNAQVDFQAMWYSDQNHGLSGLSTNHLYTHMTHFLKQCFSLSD


How the values were obtained:
[1] = biological target: T1, fibroblast activating protein alpha …; assay: binding to FAP+ cells, cell analyser, half maximal saturation
[2] = biological target: T2, fibroblast activating protein alpha …; assay: sandwich ELISA, half maximal saturation of binding (SC50), c-myc tag detection
[3] = biological target: T1, fibroblast activating protein alpha …; assay: flow cytometry on FAP overexpressing HT1080 cells, half maximal saturation (SC50)

EC50 [1] [nM]	EC50 [2] [nM]	EC50 [3] [nM]	Binder
8 to 12	–	–	scFv #13 as bivalent in minibody format (other) QVQLVESGGTLVQPGGSLRLSCAASGFTFSSYAMSWIRQAPGKGLEWVSGISASGGYIDYADSVKGRVTISRDNSKNMAYLQMSSLRAEDTALYYCAKGGNYQMLLDHWGQGTLVTVSSASTKGPKLEEGEFSEARVDIQMTQSPSSLSASTGDRVTITCRASQDISSYLAWYQQAPGKAPHLLMSGATTLQTGVPSRFSGSGSGTDFTLTITSLQSEDFATYYCQQYYIYPPTFGQGTRVEIKRTVAAPSVFAA
32	–	–	scFv #50 as bivalent in minibody format (other) QVQLVESGGGLVQPGGSLRLSCAASGFTFSNYWMSWVRQAPGKGLEWVANIKQDGSEKYYVDSVKGRFTISRDNAKNSLYLQMNSLRAEDTAVYYCARGSLCTDGSCPTIGPGPNWGQGTLVTVSSAPTKAPKLEEGEFSEARVDIQMTQSPSSLSASTGDRVTITCRASQDISSYLAWYQQAPGKAPHLLMSGATTLQTGVPSRFSGSGSGTDFTLTITSLQSEDFATYYCQQYYIYPPTFGQGTRVEIKRTVAAPSVFAA
–	20	20	scFv F19 (parental murine scFv) (scFv, V domains shown) VH: EVQLQQSGPELVKPGASVKMSCKTSRYTFTEYTIHWVRQSHGKSLEWIGGINPNNGIPNYNQKFKGRATLTVGKSSSTAYMELRSLTSEDSAVYFCARRRIAYGYDEGHAMDYWGQGTSVTVSS VL: DIVMSQSPSSLAVSVGEKVTMSCKSSQSLLYSRNQKNYLAWFQQKPGQSPKLLIFWASTRESGVPDRFTGSGFGTDFNLTISSVQAEDLAVYDCQQYFSYPLTFGAGTKLELK
